Our source for the Kd values is patent US20200317768A1 (published 2020).

Changes are numbered by the printed parent chain. Names may count otherwise.

Test in all cases: SPR (BIACORE), antibody captured, FcgR analyte
(In general: In SPR one partner is held on a chip, and binding of the other changes the refractive index at the surface.)

Assay [1] addresses T1, cynomolgus monkey FcγRIIa1 extracellular domain with C-terminal His-tag (cynomolgus monkey).
T1 construct: also called cyno FcgRIIa1; cynoFcγRIIa1
T1 chain: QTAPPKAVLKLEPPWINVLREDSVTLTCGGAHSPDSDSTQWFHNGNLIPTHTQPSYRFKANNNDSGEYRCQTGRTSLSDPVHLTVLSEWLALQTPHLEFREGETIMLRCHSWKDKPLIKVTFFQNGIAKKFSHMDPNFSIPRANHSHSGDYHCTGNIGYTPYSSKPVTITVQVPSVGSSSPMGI
How it is done: (§1) The kinetic analysis of interactions between these antibodies and FcγR was carried out using BIACORE® T200 or BIACORE® 4000 (GE Healthcare). HBS-EP+ (GE Healthcare) was used as the running buffer, and the measurement temperature was set to 25° C. A chip produced by immobilizing Protein A. Protein A/G or mouse anti-human IgG kappa light chain (BD Biosciences) onto a Series S Sensor Chip CM4 or CM5 (GE Healthcare) by the amine-coupling method was used. […] After the measurement, the antibody captured on the chip was washed off by allowing reaction with 10 mM glycine-HCl, pH1.5 and 25 mM NaOH so that the chip was regenerated and used repeatedly. The sensorgrams obtained as measurement results were analyzed by the 1:1 Langmuir binding model using the BIACORE® Evaluation Software to calculate the binding rate constant ka (L/mol/s) and dissociation rate constant kd (l/s), and the dissociation constant KD (mol/L) was calculated from these values. […] Regarding such interactions, KD values were calculated using the following 1:1 binding model described in BIACORE® T100 Software Handbook BR1006-48 Edition AE.
(§2) The behavior of interacting molecules according to the 1:1 binding model on BIACORE® can be described by Equation 1: Req=C·R max/(KD+C)+RI, wherein, Req is a plot of steady-state binding levels to analyte concentration. C is concentration, RI is bulk refractive index contribution in the sample, and Rmax is analyte binding capacity of the surface. When this equation is rearranged, KD can be expressed as Equation 2: KD=C·Rmax/(Req−RI)−C. KD can be calculated by substituting the values of Rmax, RI, and C into Equation 1 or Equation 2. From the current measurement conditions, RI=0, C=2 μmol/L can be used.

Assay [2] has as its target T2, cynomolgus monkey FcγRIIa2 extracellular domain with C-terminal His-tag (cynomolgus monkey).
T2 construct: also called cyno FcgRIIa2; cynoFcγRIIa2
T2 chain: T1 chain with P95T, T121A, I127K, A128S, K130N, D135N, R142Q
How it is done: as §1, §2

Assay [3] deals with T3, cynomolgus monkey FcγRIIa3 extracellular domain with C-terminal His-tag (cynomolgus monkey).
T3 construct: also called cyno FcgRIIa3; cynoFcγRIIa3
T3 chain: T1 chain with P95T, T121A, A128S, H133P, D135N
How it is done:
as §1, §2

Assay [4] concerns the target T4, cynomolgus monkey FcγRIIb extracellular domain with C-terminal His-tag (cynomolgus monkey).
T4 construct: also called cyno FcgRIIb; cynoFcγRIIb
T4 chain: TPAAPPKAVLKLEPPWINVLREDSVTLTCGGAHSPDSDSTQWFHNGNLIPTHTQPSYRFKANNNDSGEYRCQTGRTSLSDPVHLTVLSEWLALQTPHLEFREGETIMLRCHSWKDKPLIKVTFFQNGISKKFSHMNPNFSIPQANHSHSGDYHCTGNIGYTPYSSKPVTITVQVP
How it is done: as §1, §2

Assay [5] deals with T5, cynomolgus monkey FcγRIIIaS extracellular domain with C-terminal His-tag (cynomolgus monkey, UniProt Q8SPW2 21-206 at identity 1.00)).
T5 construct: also called cyno FcgRIIIaS; cynoFcγRIIIaS
T5 chain: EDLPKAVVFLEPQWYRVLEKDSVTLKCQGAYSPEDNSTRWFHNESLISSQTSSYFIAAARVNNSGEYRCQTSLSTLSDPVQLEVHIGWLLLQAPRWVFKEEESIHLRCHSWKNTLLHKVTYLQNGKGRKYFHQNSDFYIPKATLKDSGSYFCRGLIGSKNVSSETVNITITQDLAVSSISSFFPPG
The procedure:
as §1, §2

Assay [6] has as its target T6, human FcγRIIaH extracellular domain with C-terminal His-tag (human, UniProt P12318 34-217).
T6 construct: also called human FcgRIIaH; FcγRIIa (type H)
T6 sequence: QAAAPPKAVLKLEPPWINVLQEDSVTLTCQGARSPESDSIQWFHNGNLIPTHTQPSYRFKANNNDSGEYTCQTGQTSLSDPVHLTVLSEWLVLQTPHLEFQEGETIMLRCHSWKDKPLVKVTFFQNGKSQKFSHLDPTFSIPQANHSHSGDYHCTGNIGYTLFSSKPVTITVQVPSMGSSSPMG
The procedure:
as §1, §2

The target of assay [7] is T7, human FcγRIIaR extracellular domain with C-terminal His-tag (human, UniProt P12318 34-217).
T7 construct: also called human FcgRIIaR; FcγRIIa (type R)
T7 chain: T6 sequence with H134R
How it is done: as §1, §2

Assay [8] addresses T8, human FcγRIIb extracellular domain with C-terminal His-tag (human, UniProt P31994 43-217).
T8 construct: also called human FcgRIIb
T8 sequence: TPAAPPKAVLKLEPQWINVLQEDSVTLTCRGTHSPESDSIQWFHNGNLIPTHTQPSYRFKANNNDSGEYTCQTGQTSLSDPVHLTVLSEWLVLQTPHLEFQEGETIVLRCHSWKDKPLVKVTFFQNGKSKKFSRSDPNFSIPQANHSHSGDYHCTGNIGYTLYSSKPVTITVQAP
How it is done:
as §1, §2

Assay [9] concerns the target T9, human FcγRIIIaV extracellular domain with C-terminal His-tag (human, UniProt P08637 17-208).
T9 construct: also called human FcgRIIIaV
The procedure:
as §1, §2

T9 sequence (P08637 17-208 F176V): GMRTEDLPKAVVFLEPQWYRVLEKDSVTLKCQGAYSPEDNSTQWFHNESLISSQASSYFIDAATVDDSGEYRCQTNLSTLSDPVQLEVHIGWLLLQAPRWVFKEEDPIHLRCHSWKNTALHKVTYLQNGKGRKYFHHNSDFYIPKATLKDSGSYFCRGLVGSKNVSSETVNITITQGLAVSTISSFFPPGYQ

B1: M103205H795-MY533/M103202L889-SK1 (antibody, human IgG1, kappa)
heavy: QVTLKESGPVLVKPTETLTLTCTVSGIDLSHDDISWVRQAPGKGLEWVGIISYAGSTYYASWAKGRLTISKDTSKNQVVLTMTNMDPVDTATYYCARGVPAYSHGGDLWGQGTLVTVSSASTKGPSVFPLAPSSKSTSGGTAALGCLVKDYFPEPVTVSWNSGALTSGVHTFPAVLQSSGLYSLSSVVTVPSSSLGTQTYICNVNHKPSNTKVDKKVEPKSCDKTHTCPPCPAPEWLTGPVVFLFPPKPKDTLMISRTPEVTCVVVDVSDEDPEVKFNWYVDGVEVHNAKTKPREELYNSTYRVVSVLTVLHQDWLNGKEYKCKVSNKALPKPIEKTISKAKGQPREPQVYTLPPSREEMTKNQVSLTCLVKGFYPSDIAVEWESNGQPENNYKTTPPVLDSDGSFFLYSKLTVDKSRWQQGNVFSCSVMHEALHNHYTQKSLSLSP
light: DIVMTQSPATLSLSPGERATLSCTSSQSVYHANWLSWFQQKPGQPPKLLIYWASTLAYGVPSRFSGSGSGTDFTLTISSLQPEDAATYYCAGGYGGGRYAFGQGTKVEIKRTVAAPSVFIFPPSDEQLKSGTASVVCLLNNFYPREAKVQWKVDNALQSGNSQESVTEQDSKDSTYSLSSTLTLSKADYEKHKVYACEVTHQGLSSPVTKSFNRGEC
notes: Substitutions introduced into M103205H795-SG1, expressed with M103202L889-SK1 as light chain; EU numbering
Usually Kd stands for a measure of binding affinity in units of concentration. Take B1: the Kd in [1] was found to be 0.8 µM; in assay [2] it was 0.73 µM; in assay [3] it was 1.2 µM; in [4], 0.25 µM; in assay [5] it was 1.1 µM; in assay [6] it was 0.21 µM. Further, the Kd in assay [7] is 0.2 µM; in [8] it was 0.95 µM; in [9] it was 1.8 µM.

B2: M103205H795-MY534/M103202L889-SK1 (antibody, human IgG1, kappa)
heavy: B1 heavy with W236L
light: B1 light
notes: as for B1
Turning to B2, the Kd in [1] was determined as 1.3 µM; in assay [2] it was 1.3 µM; in assay [3] it was 1.2 µM; in [4], 0.42 µM; in assay [5], 1.7 µM; in [6], 0.17 µM. For the same molecule, the Kd in [7] stood at 0.19 µM; in assay [8], 0.12 µM; in assay [9], 4.3 µM.

B3: M103205H795-MY538/M103202L889-SK1 (A231G/L234W/G236T/H268D/Q295L/A330K) (antibody, human IgG1, kappa)
heavy: B1 heavy with A233G, V241S
light: B1 light
notes: as for B1
For B3, the Kd in assay [1] stood at 0.96 µM; in assay [2], 1.1 µM; in [3], 3 µM; in assay [4], 0.28 µM; in assay [5], 2.4 µM; in [6] it was 0.25 µM. Besides, the Kd in assay [7] amounted to 0.62 µM; in [8], 1.3 µM; in assay [9], 5.7 µM.

B4: M103205H795-MY536/M103202L889-SK1 (antibody, human IgG1, kappa)
heavy: B1 heavy with A233G, L297Q
light: B1 light
notes: as for B1
For the molecule B4, the Kd is 1.3 µM in assay [1]; 1.1 µM in assay [2]; 0.98 µM in assay [3]; 0.4 µM in [4]; 1.6 µM in [5]; 0.29 µM in assay [6]. Moreover, the Kd in assay [7] worked out at 0.22 µM; in assay [8], 0.99 µM; in assay [9], 3.7 µM.

B5: M103205H795-MY535/M103202L889-SK1 (antibody, human IgG1, kappa)
heavy: B1 heavy with A233G, V241S, L297Q
light: B1 light
notes: as for B1
Turning to B5, the Kd in [1] stood at 1.3 µM; in [2] it was 1.4 µM; in assay [3], 3 µM; in [4] it was 0.41 µM; in assay [5], 2.1 µM; in assay [6] it was 0.39 µM. For the same molecule, the figures for the Kd in [7], in assay [8] and in assay [9] were 0.64 µM, 1.9 µM and 3.2 µM, respectively.

B6: M103205H795-MY537/M103202L889-SK1 (antibody, human IgG1, kappa)
heavy: B1 heavy with A233G
light: B1 light
notes: as for B1
Turning to B6, the Kd in assay [1] came to 1.2 µM; in [2], 1.1 µM; in assay [3], 1.4 µM; in [4] it was 0.32 µM; in [5], 1.5 µM; in assay [6] it was 0.28 µM. Moreover, the dissociation constant (Kd) was 0.37 µM in assay [7], 1 µM in [8] and 3.3 µM in assay [9].
